{
  "source": "IntAct's records for PubMed 31515488",
  "parents": {"B1": {"name": "Programmed cell death 6-interacting protein (Homo sapiens), Q8WUM4 (parent)", "chain": "MATFISVQLKKTSEVDLAKPLVKFIQQTYPSGGEEQAQYCRAAEELSKLRRAAVGRPLDKHEGALETLLRYYDQICSIEPKFPFSENQICLTFTWKDAFDKGSLFGGSVKLALASLGYEKSCVLFNCAALASQIAAEQNLDNDEGLKIAAKHYQFASGAFLHIKETVLSALSREPTVDISPDTVGTLSLIMLAQAQEVFFLKATRDKMKDAIIAKLANQAADYFGDAFKQCQYKDTLPKEVFPVLAAKHCIMQANAEYHQSILAKQQKKFGEEIARLQHAAELIKTVASRYDEYVNVKDFSDKINRALAAAKKDNDFIYHDRVPDLKDLDPIGKATLVKSTPVNVPISQKFTDLFEKMVPVSVQQSLAAYNQRKADLVNRSIAQMREATTLANGVLASLNLPAAIEDVSGDTVPQSILTKSRSVIEQGGIQTVDQLIKELPELLQRNREILDESLRLLDEEEATDNDLRAKFKERWQRTPSNELYKPLRAEGTNFRTVLDKAVQADGQVKECYQSHRDTIVLLCKPEPELNAAIPSANPAKTMQGSEVVNVLKSLLSNLDEVKKEREGLENDLKSVNFDMTSKFLTALAQDGVINEEALSVTELDRVYGGLTTKVQESLKKQEGLLKNIQVSHQEFSKMKQSNNEANLREEVLKNLATAYDNFVELVANLKEGTKFYNELTEILVRFQNKCSDIVFARKTERDELLKDLQQSIAREPSAPSIPTPAYQSSPAGGHAPTPPTPAPRTMPPTKPQPPARPPPPVLPANRAPSATAPSPVGAGTAAPAPSQTPGSAPPPQAQGPPYPTYPGYPGYCQMPMPMGYNPYAYGQYNMPYPPVYHQSPGQAPYPGPQQPSYPFPQPPQQSYYPQQ", "partner": "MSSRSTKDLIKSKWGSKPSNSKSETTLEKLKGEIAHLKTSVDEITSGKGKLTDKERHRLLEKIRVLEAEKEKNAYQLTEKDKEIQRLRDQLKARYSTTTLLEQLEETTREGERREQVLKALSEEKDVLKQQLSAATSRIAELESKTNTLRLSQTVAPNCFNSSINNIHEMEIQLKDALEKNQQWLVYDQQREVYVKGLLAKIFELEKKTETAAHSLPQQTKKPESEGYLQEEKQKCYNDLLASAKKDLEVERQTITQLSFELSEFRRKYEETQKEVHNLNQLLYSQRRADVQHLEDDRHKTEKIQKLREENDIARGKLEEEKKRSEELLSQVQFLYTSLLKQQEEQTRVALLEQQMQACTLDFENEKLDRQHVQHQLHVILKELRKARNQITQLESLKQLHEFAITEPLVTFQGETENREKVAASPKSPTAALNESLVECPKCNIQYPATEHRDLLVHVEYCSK"}, "B2": {"name": "Germ cell-less protein-like 1 (Homo sapiens), Q96IK5 (parent)", "chain": "MGSLSSRVLRQPRPALAQQAQGARAGGSARRPDTGDDAAGHGFCYCAGSHKRKRSSGSFCYCHPDSETDEDEEEGDEQQRLLNTPRRKKLKSTSKYIYQTLFLNGENSDIKICALGEEWSLHKIYLCQSGYFSSMFSGSWKESSMNIIELEIPDQNIDVEALQVAFGSLYRDDVLIKPSRVVAILAAACLLQLDGLIQQCGETMKETVNVKTVCGYYTSAGTYGLDSVKKKCLEWLLNNLMTHQNVELFKELSINVMKQLIGSSNLFVMQVEMDIYTALKKWMFLQLVPSWNGSLKQLLTETDVWFSKQRKDFEGMAFLETEQGKPFVSVFRHLRLQYIISDLASARIIEQDAVVPSEWLSSVYKQQWFAMLRAEQDSEVGPQEINKEELEGNSMRCGRKLAKDGEYCWRWTGFNFGFDLLVTYTNRYIIFKRNTLNQPCSGSVSLQPRRSIAFRLRLASFDSSGKLICSRTTGYQILTLEKDQEQVVMNLDSRLLIFPLYICCNFLYISPEKKN", "partner": "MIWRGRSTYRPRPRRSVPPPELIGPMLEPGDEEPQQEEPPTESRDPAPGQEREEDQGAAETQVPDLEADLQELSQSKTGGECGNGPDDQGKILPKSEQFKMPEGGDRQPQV"}, "B3": {"name": "Macrophage scavenger receptor types I and II (Homo sapiens), P21757 (parent)", "chain": "MEQWDHFHNQQEDTDSCSESVKFDARSMTALLPPNPKNSPSLQEKLKSFKAALIALYLLVFAVLIPLIGIVAAQLLKWETKNCSVSSTNANDITQSLTGKGNDSEEEMRFQEVFMEHMSNMEKRIQHILDMEANLMDTEHFQNFSMTTDQRFNDILLQLSTLFSSVQGHGNAIDEISKSLISLNTTLLDLQLNIENLNGKIQENTFKQQEEISKLEERVYNVSAEIMAMKEEQVHLEQEIKGEVKVLNNITNDLRLKDWEHSQTLRNITLIQGPPGPPGEKGDRGPTGESGPRGFPGPIGPPGLKGDRGAIGFPGSRGLPGYAGRPGNSGPKGQKGEKGSGNTLTPFTKVRLVGGSGPHEGRVEILHSGQWGTICDDRWEVRVGQVVCRSLGYPGVQAVHKAAHFGQGTGPIWLNEVFCFGRESSIEECKIRQWGTRACSHSEDAGVTCTL"}},
  "data": [
    {"variants_of": "B1", "settings": "with cep55_human CEP55, Q53EZ4", "values": [
      {"variant": "A309T", "effect of a mutation on the interaction": "with no effect"},
      {"variant": "N550S", "effect of a mutation on the interaction": "with no effect"},
      {"variant": "G429S", "effect of a mutation on the interaction": "with no effect"},
      {"variant": "S730L", "effect of a mutation on the interaction": "with no effect"},
      {"variant": "G778A", "effect of a mutation on the interaction": "with no effect"}
    ]},
    {"variants_of": "B2", "settings": "with xage3_human XAGE3, Q8WTP9", "values": [
      {"variant": "K281Q", "effect of a mutation on the interaction": "with no effect"},
      {"variant": "R457H", "effect of a mutation on the interaction": "with no effect"},
      {"variant": "I340V", "effect of a mutation on the interaction": "with no effect"},
      {"variant": "R449Q", "effect of a mutation on the interaction": "with no effect"}
    ]},
    {"variants_of": "B3", "settings": "with sc22a_human SEC22A", "values": [
      {"variant": "P275A", "effect of a mutation on the interaction": "with no effect"}
    ]},
    {"variants_of": "B3", "settings": "with lerl1_human LEPROTL1, O95214", "values": [
      {"variant": "P286T", "effect of a mutation on the interaction": "with no effect"}
    ]}
  ]
}
